Publication PMC5269589, “Functional characterization of NES and GES responsible for the biosynthesis of (E)-nerolidol and (E,E)-geranyllinalool in Tripterygium wilfordii” (Scientific Reports, 2017)

B1: TwGES1 (Tripterygium wilfordii) (protein)
chain: MDFSDSSIISLVDKIKVEMFVDMDVYSFVAPSAYDTAWLAMVPDSRSPVQPLFMDCLDWVLNNQREEGFWGDIDGHGMPAIESLTSTLACLIALKKWNVGESAIQKGLDFVRENAEMYIEEIKDCCPRRFAVIFPAMLEQASSLGLDNILPNHVKDTVHVMDIFIEHRRIVEKEELVETYHYPPLLAYLEALPPNKIDKDQIVTHLSSDGSLFQSPSATASAFMITGNKDCLAYLKAIIQRCPNGVPATYPIDEDLIRLCMVNHLQRLGLAEHFTKEIKNMLTSVHRNYSTNHRSTVKDSNLLHLYKDSLAFWLLRMNGYIVSPGSFCWFMQRGDIKDRIENNYYDDDFSSVMLNVYKATDLMFPGEEDQLEEARCFARKLLENVISTTSGNQNHLHKLIGHELKTPWLARLDHLEHKMWITQEHDSTLLWMGKFSFHRLSYDNSERLTQLAVQNYKYRQSIYRKELVELKRWSREWGLSEMGFGREKTTYCYFVVAASTSLPKHSDVRLIAAKIGILITVADDFFDEHASLDELQNLTHAIQRWDGKGLSGHSRTIFEVLDDLVREIAKKYKEQQEGIDVSDSLKNLWYETFLAWLVESQWSKNGHIPSMDEYIETGMISIASHTLLLPASCFLNPSLAYHQLKPLEYENITKLLMLITRLLNDTQSYQKEQKSGKKNFVLLYLKENPEAEIEDAIEYVGEIIEKKKKEFFEYALMDGLSELPKECRHLHLACLKVYQMLFNSSNRYDSNTELIQDIQEAFYQSPDPEIGVSSSKSSSIKSTKKPVSLPQHLSFKKQNNQTTSYYHSSFDYRGSNNIAVKWASWPKWRVDGYNKSMFVTPKFSPCFI
notes: MBP fusion (pMAL-c2X) from E. coli Transetta (DE3), amylose resin; tag cleavage not mentioned
B2: TwNES (Tripterygium wilfordii) (protein)
chain: MAFFGSSRSSIIPLKTISQIVTADSTNKRGTVDSNHKSAPTTPLNDRICTEHAHKVKDFKQIINIAGEDPSEGLAIIDAVQRLGVDHHFQDEIHTILQKHYTLATGTTTHGDCMITSLRFRLLRQEGYYVSADVFEGLKDEEGKFDQNLSGDIKGLMALYEASQLSMEGENILDEARDYSSRLLNECVTQLDHDQARIVEHTLTHPHHKSLARFMAKNFLRDFHGTNGWIDDLKKLAKVDFDMAQSTYQKEVVQISQWWKELGLAEELKFARDQPVKWYIWTTTCHQDPSFSELRINLTKPISFVYLIDDIFDVYGTPQEVTDFTEAVDRWDHDAIDQLPYYMKICFKALDDITNEISYKVYKQHGWNPLDSLRKSWGRLCNAFLTEAQWFASGHLPKAEEYLENGIISSGVPVVLLHLFFLLGEGVTQKSVEMIDNTPAIVSAAAAILRLWDDLGSAKDEDQDGKDGSYLACYTNENPGCSLEDAEKHVKSKICDEWKQLNKECLSQKNPFSPSFLKACLNVSRMVPLMYEYDENRRLPRLEEFLKSILIK
notes: MBP fusion (pMAL-c2X) from E. coli Transetta (DE3), amylose resin; tag cleavage not mentioned; gene synthesized

Legend:
[1] = substrate: CC(C)=CCC/C(C)=C/CC/C(C)=C/CC/C(C)=C/COP(=O)(O)OP(=O)(O)O; assay: GC-MS of hexane-extracted product; Michaelis-Menten fit; format: biochemical, Tripterygium wilfordii; conditions: pH 7.5, 30 °C, 10 min, Mg2+ 10 mM in text (20 mM in Figure 5 legend), no added K+ stated, product (E,E)-geranyllinalool
[2] = substrate: CC(C)=CCC/C(C)=C/CC/C(C)=C/CO[P@@](=O)(O)OP(=O)(O)O; assay: as above; format: biochemical, Tripterygium wilfordii; conditions: 200 mM K+, pH 7.5, 30 °C, 10 min, Mg2+ 10 mM in text (20 mM in Figure 5 legend), product (E)-nerolidol

Row | Protein | Km [1] | Km [2]
1 | B1 | 2.039 µM | 
2 | B2 |  | 12.700 µM
